Experimental data reported in publication PMC9563126, “Identification of a flavonoid C-glycosyltransferase from fern species Stenoloma chusanum and the application in synthesizing flavonoid C-glycosides in Escherichia coli” (Microbial Cell Factories, 2022).
Positions count from the first letter of the chain named. Names may count otherwise.

Experiments:
[1] = substrate: O=C(CCc1ccc(O)cc1)c1c(O)cc(O)cc1O; test: HPLC glycosylation assay, Lineweaver-Burk; assay type: biochemical, Odontosoria chinensis; conditions: 1 mM UDP-glucose, 200 mM MES pH 6.5, 1 mM DTT, 30 °C, 15 min, acceptor varied
Excerpt: (§1) HPLC glycosylation assay, Lineweaver-Burk on ScCGT1

[2] = substrate: O=C1CC(O)(c2ccc(O)cc2)Oc2cc(O)cc(O)c21; test: HPLC glycosylation assay, Lineweaver-Burk; assay type: biochemical, Odontosoria chinensis; conditions: 1 mM UDP-glucose, 200 mM MES pH 6.5, 1 mM DTT, 30 °C, 15 min, acceptor varied
Excerpt: as §1

B1: ScCGT1 (Odontosoria chinensis) (protein)
chain: MASCDTGLLSDQRHHALMFPYPVQGHIQPFMRLSKLLATNYGFTISFFNSEENHRRLLADRDEPASQEDRAEDAEGKPLDFRMLFLPDVLPSSTEVEQMSAGTHIEKSHVLLSKTFLNTDPAALETLIRSQSPPITCLILDPLVTVIAPGLGEKLGITSLIFFPASAASLATAIRSGEVDGDAKQMTRIVGAPVLDVKEVNPFLSICGRGHSDFMARLFTQPFRKKLIKANDIILINTVEELEESTLKHLQEENKVCAIGPVLPPWGAFAVPTLWSQDYSCLDWLDKQPAASVLFVSFGSLATLSSTQLSDLALGLEASNQRILWVTRPDQIYGKAPDLPSDFLERIKDRILVFSWVPQLHVLCHTSVGGFLSHCGWNSTIESIAAGVPILAWPFFGDQMLNAKCVVEKWRIGLALTGAGGAMSKAVVETRVKDLMEGDLSKELRNRAQNLKHIVVKALSHGGSSSSNLQKLFGHL
**Q.** Which results are given for B1?
**A.** Km [1]: 23.8 ± 2.8 µM; Vmax [1]: 0.011 µmol/min/mg; kcat [1]: 0.0133 ± 0.000333 s⁻¹; kcat/Km [1]: 560 M⁻¹ s⁻¹; Km [2]: 17.5 ± 2.0 µM; Vmax [2]: 0.0115 µmol/min/mg; kcat [2]: 0.0133 ± 0.000167 s⁻¹; kcat/Km [2]: 795 M⁻¹ s⁻¹

B2: ScCGT1 (Odontosoria chinensis; P164T) (protein)
chain: B1 chain with P164T
**Q.** B2 was tested. Which Km [1] did it give?
**A.** Its Km is 29.8 ± 2.5 µM.

**Q.** What about the Vmax [1] of the same protein?
**A.** Its Vmax is 0.0334 µmol/min/mg.

**Q.** What about the kcat [1] of the same protein?
**A.** The kcat was 0.04 ± 0.000833 s⁻¹.

**Q.** And the kcat/Km [1]?
**A.** The kcat/Km was 1360 M⁻¹ s⁻¹.

**Q.** What about the Km [2] of the same protein?
**A.** The Km was 31.7 ± 2.9 µM.

**Q.** What about the Vmax [2] of the same protein?
**A.** Its Vmax is 0.0399 µmol/min/mg.

**Q.** What about the kcat [2] of the same protein?
**A.** Its kcat is 0.0483 ± 0.001 s⁻¹.

**Q.** What about the kcat/Km [2] of the same protein?
**A.** Its kcat/Km is 1520 M⁻¹ s⁻¹.
